Laboratory results published in patent US20230105324A1 (Hoffmann-La Roche, published 2023).
Positions count from the first letter of the chain named. Where two headings read alike, the source gives them in different places. Blank lines part the entries; values can stand above or below the binder they belong to.

Key:
human PDGF-BB [1] = molecular target: T1, human PDGF-BB (human); assay: SPR, Fab fragment; assay format for PDGF not described
T1 construct: The ELISA text names human PDGF-BB of Cell Signaling, Cat. No 8921BF
T1 chain: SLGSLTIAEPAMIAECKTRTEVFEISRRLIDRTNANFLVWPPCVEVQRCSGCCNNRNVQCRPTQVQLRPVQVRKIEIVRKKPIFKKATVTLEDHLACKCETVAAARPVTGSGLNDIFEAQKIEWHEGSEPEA

human VEGF121-His [2] = molecular target: T2, human VEGF121-His (human, UniProt P15692 207-395); assay: SPR, VEGF121-His captured via anti-His antibody on C1 chip, Fab as analyte, single cycle kinetics
T2 construct: Captured by an anti-His antibody on the chip; not shown: His tag
T2 sequence: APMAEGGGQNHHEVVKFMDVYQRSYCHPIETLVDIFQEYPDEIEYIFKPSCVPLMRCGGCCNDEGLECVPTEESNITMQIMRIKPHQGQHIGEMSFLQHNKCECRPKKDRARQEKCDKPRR
Protocol: (§1) An anti-His capturing antibody (GE Healthcare 28995056) was immobilized to a Series S Sensor Chip C1 (GE Healthcare 29104990) using standard amine coupling chemistry resulting in a surface densitiy of approximately 500 resonance units (RU). As running and dilution buffer, HBS-P+ (10 mM HEPES, 150 mM NaCl pH 7.4, 0.05% Surfactant P20) was used. […] The surface was regenerated by injecting 10 mM Glycine pH 1.5 for 60s. […] Curve fitting was performed using the 1:1 Langmuir binding model within the Biacore evaluation software. To provide more robust fitting, the Multiple Rmax option was chosen for global fitting using both ligand densities.

human VEGF121-His [3] = molecular target: T2, human VEGF121-His; assay: as above; remark: listed apart in the source
Protocol: as §1

human PDGF-BB [4] = molecular target: T1, human PDGF-BB; assay: SPR, Fab fragment; assay format for PDGF not described
minipig PDGF = molecular target: T3, minipig PDGF (minipig); assay: as above
T3 construct: Printed only as minipig PDGF; also called Minpig PDGF
T3 sequence (P20034 whole entry, looked up): SLGSPAVAEPAVIAE

cynomolgus PDGF = molecular target: T4, cynomolgus PDGF (cynomolgus); assay: as above
T4 construct: Printed only as cynomolgus PDGF

rabbit PDGF = molecular target: T5, rabbit PDGF (rabbit); assay: as above
T5 construct: Printed only as rabbit PDGF

human PDGF-BB [5] = molecular target: T1, human PDGF-BB; assay: as above

Kd (human PDGF-BB [1]): 95 nM
koff (human PDGF-BB [1]): 0.0779 s⁻¹
kon (human PDGF-BB [1]): 824000 M⁻¹ s⁻¹
t½ (human PDGF-BB [1]): 0.1 min
Kd (human VEGF121-His [2]): 0.13 nM
koff (human VEGF121-His [2]): 6.54e-05 s⁻¹
kon (human VEGF121-His [2]): 503000 M⁻¹ s⁻¹
t½ (human VEGF121-His [2]): 177 min
Kd (human VEGF121-His [3]): 0.13 nM
koff (human VEGF121-His [3]): 6.54e-05 s⁻¹
kon (human VEGF121-His [3]): 503000 M⁻¹ s⁻¹
t½ (human VEGF121-His [3]): 177 min
Kd (human PDGF-BB [4]): 95 nM
koff (human PDGF-BB [4]): 0.0779 s⁻¹
kon (human PDGF-BB [4]): 824000 M⁻¹ s⁻¹
t½ (human PDGF-BB [4]): 0.1 min
B1: bispecific anti-VEGF/anti-PDGF-B Fab fragment P1AE2845 (Fab, V domains shown)
VH: EEQLVESGGGLVQPGGSLRLSCAASGWWFEYTDMSWVRQAPGQGLEWVGSISPSGGSTYYNTNFIGRFTISRDDSKNTLYLQMNSLRDEDTAVYYCARDEGYFDEWGQGTLVTVSS
VL: AIQMTQSPSSLSASVGDRVTITCQASYWLHKYLAWYQQKPGQAPKLLIYDASELEYGVPDRFSGSGSGTDFTLTISSLEPEDFAVYYCQNYRYHPYTFGQGTKLEIKR
notes: DutaFab: one VH/VL pair carries both paratopes; Expressed in E. coli TG1

Kd (human VEGF121-His [2]): 0.012 nM
koff (human VEGF121-His [2]): 1.73e-05 s⁻¹
kon (human VEGF121-His [2]): 1.4e+06 M⁻¹ s⁻¹
t½ (human VEGF121-His [2]): 668 min
Kd (minipig PDGF): 0.3 nM
koff (minipig PDGF): 0.000225 s⁻¹
kon (minipig PDGF): 646000 M⁻¹ s⁻¹
t½ (minipig PDGF): 51 min
Kd (cynomolgus PDGF): 0.6 nM
koff (cynomolgus PDGF): 0.000215 s⁻¹
kon (cynomolgus PDGF): 336000 M⁻¹ s⁻¹
t½ (cynomolgus PDGF): 54 min
Kd (rabbit PDGF): 0.7 nM
koff (rabbit PDGF): 0.000223 s⁻¹
kon (rabbit PDGF): 337000 M⁻¹ s⁻¹
t½ (rabbit PDGF): 52 min
Kd (human PDGF-BB [5]): 1.4 nM
koff (human PDGF-BB [5]): 0.000483 s⁻¹
kon (human PDGF-BB [5]): 357000 M⁻¹ s⁻¹
t½ (human PDGF-BB [5]): 24 min
B3: bispecific anti-VEGF/anti-PDGF-B Fab fragment 28.07 (Fab, V domains shown)
VH: DLQLVESGGGLVKPGGSLRLSCAADGWWFGYTDMSWVRQAPGKGLEWVGSISYKGGHKYLNTKFIGRFTISRDDDTNTLYLQMNSLRAEDTAVYYCARDDGYFDTWGQGTLVTVSS
VL: AIYMHQEPSSLSASVGDRVTITCHGSYWLSNYLAWYQQKPGKAPKLLIYDGKEREHGVPSRFSGSGSHEDYTLTISSLQPEDFATYYCQQYRYHPYTFGHGTKVEIKR

Kd (human PDGF-BB [1]): 1 nM
t½ (human PDGF-BB [1]): 44 min
Kd (minipig PDGF): 0.4 nM
t½ (minipig PDGF): 48 min
Kd (cynomolgus PDGF): 0.6 nM
t½ (cynomolgus PDGF): 52 min
Kd (rabbit PDGF): 0.7 nM
t½ (rabbit PDGF): 48 min
t½ (human PDGF-BB [5]): 24 min
B4: bispecific anti-VEGF/anti-PDGF-B Fab fragment P1AA9124 (Fab, V domains shown)
VH: B3 VH with H57S, K58T, L60Y
VL: B3 VL with Y3Q, H5T, E7S, H100Q, V104L

Continued, binder first:

B2: bispecific anti-VEGF/anti-PDGF-B Fab fragment RO7113083 (Fab, V domains shown)
VH: B3 VH with H57S, K58T, L60Y
VL: B3 VL
notes: also called R07113083
Kd (human PDGF-BB [1]): 1 nM
t½ (human PDGF-BB [1]): 90 min
Kd (minipig PDGF): 0.3 nM
t½ (minipig PDGF): 59 min
Kd (cynomolgus PDGF): 0.7 nM
t½ (cynomolgus PDGF): 53 min
Kd (rabbit PDGF): 0.6 nM
t½ (rabbit PDGF): 59 min
Kd (human PDGF-BB [5]): 1.3 nM
t½ (human PDGF-BB [5]): 25 min

B5: bispecific anti-VEGF/anti-PDGF-B Fab fragment 28.02 (Fab, V domains shown)
VH: B3 VH
VL: B3 VL with Y3H, H5Y
Kd (human VEGF121-His [2]): 0.007 nM
koff (human VEGF121-His [2]): 1.15e-05 s⁻¹
kon (human VEGF121-His [2]): 1.56e+06 M⁻¹ s⁻¹
t½ (human VEGF121-His [2]): 1010 min
Kd (minipig PDGF): 0.4 nM
koff (minipig PDGF): 0.000215 s⁻¹
kon (minipig PDGF): 605000 M⁻¹ s⁻¹
t½ (minipig PDGF): 54 min
Kd (rabbit PDGF): 0.7 nM
koff (rabbit PDGF): 0.000218 s⁻¹
kon (rabbit PDGF): 325000 M⁻¹ s⁻¹
t½ (rabbit PDGF): 53 min
Kd (human PDGF-BB [5]): 1.3 nM
koff (human PDGF-BB [5]): 0.000485 s⁻¹
kon (human PDGF-BB [5]): 368000 M⁻¹ s⁻¹
t½ (human PDGF-BB [5]): 24 min

B6: bispecific anti-VEGF/anti-PDGF-B Fab fragment 28.01 (Fab, V domains shown)
VH: B3 VH with H57S, K58T, L60Y
VL: B3 VL with Y3H, H5Y
Kd (minipig PDGF): 0.3 nM
t½ (minipig PDGF): 69 min
Kd (cynomolgus PDGF): 0.6 nM
t½ (cynomolgus PDGF): 54 min
Kd (rabbit PDGF): 0.6 nM
t½ (rabbit PDGF): 67 min
Kd (human PDGF-BB [5]): 1.3 nM
t½ (human PDGF-BB [5]): 26 min
